B1: SNX8 (parent)
chain: LHQETQLIHVYLPLTSHILRAFVN
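Also: lentivirally expressed fusions sorted by FACS into six bins by GFP to DsRed ratio, PSI derived from sequencing read proportions per bin multiplied by bin number.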

This data set covers variants of B1. Description: protein stability index of a GFP-peptide fusion (GPS, HEK-293T) (PSI 1-6); higher = more stable. Particulars: c terminus: a fixed tail appended.
Take LHQETQLIYVYLPLTSHILRAFVN [H9Y]: the protein stability index turned out to be 3.11. Consider LHQETQLIVVYLPLTSHILRAFVN [H9V], for which the protein stability index is 3.08. For LHQETQLINVYLPLTSHILRAFVN [H9N], the protein stability index worked out at 2.43. As for LHQETQLILVYLPLTSHILRAFVN [H9L], the protein stability index stood at 3.18. Then LHQETQLIPVYLPLTSHILRAFVN [H9P], with 2.22. Then LHQETQLIKVYLPLTSHILRAFVN [H9K], with 1.43; and LHQETQLICVYLPLTSHILRAFVN [H9C], with 3.65; and LHQETQLISVYLPLTSHILRAFVN [H9S], with 2.4. Turning to LHQETQLIGVYLPLTSHILRAFVN [H9G], the protein stability index was determined as 3.08. With LHQETQLIWVYLPLTSHILRAFVN [H9W], the protein stability index stood at 2.31.

Turning to LHQETQLIIVYLPLTSHILRAFVN [H9I], the protein stability index stood at 2.82. Then LHQETQLIAVYLPLTSHILRAFVN [H9A], with 2.16; and LHQETQLITVYLPLTSHILRAFVN [H9T], with 2.96; and LHQETQLIMVYLPLTSHILRAFVN [H9M], with 2.9. Then LHQETQLIEVYLPLTSHILRAFVN [H9E], with 1.65. LHQETQLIHVYLPLTSIILRAFVN [H17I]: the protein stability index came to 2.46. As to LHQETQLIHVYLPLTSDILRAFVN [H17D], the protein stability index was determined as 2.58. Then LHQETQLIHVYLPLTSVILRAFVN [H17V], with 1.92; and LHQETQLIHVYLPLTSNILRAFVN [H17N], with 2.47; and LHQETQLIHVYLPLTSAILRAFVN [H17A], with 2.06.

As for LHQETQLIHVYLPLTSYILRAFVN [H17Y], the protein stability index was 2.6.

Take LHQETQLIHVYLPLTSCILRAFVN [H17C]: the protein stability index came to 1.58. To LHQETQLIHVYLPLTSPILRAFVN [H17P] belongs 2.34; to LHQETQLIHVYLPLTSFILRAFVN [H17F], 3.82.

Turning to LHQETQLIHVYLPLTSTILRAFVN [H17T], the protein stability index was found to be 1.85. For LHQETQLIHVYLPLTSGILRAFVN [H17G], the protein stability index was 1.77. Then LHQETQLIHVYLPLTSRILRAFVN [H17R], with 2.42.

Turning to LHQETQLIHVYLPLTSWILRAFVN [H17W], the protein stability index worked out at 3.19. Regarding LHQETQLIHVYLPLTSMILRAFVN [H17M], the protein stability index was found to be 2.52. With LHQETQLIHVYLPLTSSILRAFVN [H17S], the protein stability index amounted to 3.54. As to LHQETQLIHVYLPLTSQILRAFVN [H17Q], the protein stability index came out at 2.97.

LHQETQLIHVYLPLTSLILRAFVN [H17L]: the protein stability index is 1.69.

LHQETQLIHVYLPLTSEILRAFVN [H17E]: the protein stability index came out at 2.75. In the case of LHQETQLIHVYLPLTSHMLRAFVN [I18M], the protein stability index was 1.88.

Regarding LHQETQLIHVYLPLTSHHLRAFVN [I18H], the protein stability index worked out at 2.63.

With LHQETQLIHVYLPLTSHGLRAFVN [I18G], the protein stability index was found to be 1.71.

For LHQETQLIHVYLPLTSHTLRAFVN [I18T], the protein stability index is 2.89. In the case of LHQETQLIHVYLPLTSHDLRAFVN [I18D], the protein stability index turned out to be 2.65. Then LHQETQLIHVYLPLTSHSLRAFVN [I18S], with 3.95; and LHQETQLIHVYLPLTSHCLRAFVN [I18C], with 3.75. As for LHQETQLIHVYLPLTSHKLRAFVN [I18K], the protein stability index worked out at 1.97.

As for LHQETQLIHVYLPLTSHWLRAFVN [I18W], the protein stability index is 2.33. As to LHQETQLIHVYLPLTSHYLRAFVN [I18Y], the protein stability index worked out at 2.39. Then LHQETQLIHVYLPLTSHFLRAFVN [I18F], with 1.93; and LHQETQLIHVYLPLTSHPLRAFVN [I18P], with 3.99; and LHQETQLIHVYLPLTSHRLRAFVN [I18R], with 2.44. Then LHQETQLIHVYLPLTSHLLRAFVN [I18L], with 3.11. Then LHQETQLIHVYLPLTSHQLRAFVN [I18Q], with 2.27; and LHQETQLIHVYLPLTSHVLRAFVN [I18V], with 3.55; and LHQETQLIHVYLPLTSHALRAFVN [I18A], with 1.85. LHQETQLIHVYLPLTSHNLRAFVN [I18N]: the protein stability index turned out to be 1.79. Regarding LHQETQLIHVYLPCTSHILRAFVN [L14C], the protein stability index is 3.23. Take LHQETQLIHVYLPPTSHILRAFVN [L14P]: the protein stability index was determined as 2.64. To LHQETQLIHVYLPRTSHILRAFVN [L14R] belongs 2.49; to LHQETQLIHVYLPATSHILRAFVN [L14A], 2.98. To LHQETQLIHVYLPQTSHILRAFVN [L14Q] belongs 3.75; to LHQETQLIHVYLPDTSHILRAFVN [L14D], 2.72; to LHQETQLIHVYLPGTSHILRAFVN [L14G], 3.49. To LHQETQLIHVYLPHTSHILRAFVN [L14H] belongs 2.13; to LHQETQLIHVYLPSTSHILRAFVN [L14S], 2; to LHQETQLIHVYLPNTSHILRAFVN [L14N], 4.27. Turning to LHQETQLIHVYLPMTSHILRAFVN [L14M], the protein stability index was 2.41. As for LHQETQLIHVYLPWTSHILRAFVN [L14W], the protein stability index was 1.8. For the variant LHQETQLIHVYLPFTSHILRAFVN [L14F], the protein stability index is 1.31. To LHQETQLIHVYLPKTSHILRAFVN [L14K] belongs 3.14. To LHQETQLIHVYLPTTSHILRAFVN [L14T] belongs 2.29. Then LHQETQLIHVYLPYTSHILRAFVN [L14Y], with 1.58; and LHQETQLIHVYLPVTSHILRAFVN [L14V], with 3.59.

In the case of LHQETQLIHVYHPLTSHILRAFVN [L12H], the protein stability index was determined as 3.23.

Consider LHQETQLIHVYSPLTSHILRAFVN [L12S], for which the protein stability index turned out to be 1.7. Then LHQETQLIHVYMPLTSHILRAFVN [L12M], with 2.71; and LHQETQLIHVYPPLTSHILRAFVN [L12P], with 2.21. With LHQETQLIHVYKPLTSHILRAFVN [L12K], the protein stability index was determined as 2.29. Then LHQETQLIHVYRPLTSHILRAFVN [L12R], with 2.48; and LHQETQLIHVYGPLTSHILRAFVN [L12G], with 3.44. LHQETQLIHVYWPLTSHILRAFVN [L12W]: the protein stability index was found to be 3.2.

LHQETQLIHVYTPLTSHILRAFVN [L12T]: the protein stability index is 2.49. Then LHQETQLIHVYCPLTSHILRAFVN [L12C], with 2.52; and LHQETQLIHVYDPLTSHILRAFVN [L12D], with 2.19; and LHQETQLIHVYYPLTSHILRAFVN [L12Y], with 3.18. Turning to LHQETQLIHVYVPLTSHILRAFVN [L12V], the protein stability index was determined as 1.91. To LHQETQLIHVYNPLTSHILRAFVN [L12N] belongs 2.08. To LHQETQLIHVYQPLTSHILRAFVN [L12Q] belongs 3.42. Then LHQETQLIHVYFPLTSHILRAFVN [L12F], with 2.58; and LHQETQLIHVYEPLTSHILRAFVN [L12E], with 1.83. For LHQETQLIHVYLPLVSHILRAFVN [T15V], the protein stability index stood at 4.03. As to LHQETQLIHVYLPLHSHILRAFVN [T15H], the protein stability index turned out to be 3.58.

In the case of LHQETQLIHVYLPLPSHILRAFVN [T15P], the protein stability index is 2.3. As to LHQETQLIHVYLPLNSHILRAFVN [T15N], the protein stability index worked out at 3.74. On to LHQETQLIHVYLPLWSHILRAFVN [T15W], for which the protein stability index was 2.9. Take LHQETQLIHVYLPLCSHILRAFVN [T15C]: the protein stability index is 2.46.

As for LHQETQLIHVYLPLRSHILRAFVN [T15R], the protein stability index worked out at 2.25. Consider LHQETQLIHVYLPLMSHILRAFVN [T15M], for which the protein stability index was found to be 1.58. To LHQETQLIHVYLPLGSHILRAFVN [T15G] belongs 1.2.
